Data on 18 sequences can be found in the DeepSol protein solubility set.

The data set in a line: soluble on expression in E. coli; label from the status in PepcDB or PDB records.
For the sequence “MSLKLSNERAEWQAQMKKSVISEERQRLARDLHDAVSQQLFAISMMTSAVLEHVKDADDKTVKRIRMVEHMAGEAQNEMRALLLHLRPVTLEGKGLKEGLTELLDEFRKKQPIDIEWDIQDTAISKGVEDHLFRIVQEALSNVFRHSKASKVTVILGIKNSQLRLKVIDNGKGFKMDQVKASSYGLNSMKERASEIGGVAEVISVEGKGTQIEVKVPIFPEEKGENERDSSIIDEGHHHHHH”, the “soluble on expression in E. coli” value is given as “soluble”.
Next, “MGHHHHHHSHMESVALYSFQATESDELAFNKGDTLKILNMEDDQNWYKAELRGVEGFIPKNYIRVKPHPWYSGRISRQLAEEILMKRNHLGAFLIRESESSPGEFSVSVNYGDQVQHFKVLREASGKYFLWEEKFNSLNELVDFYRTTTIAKKRQIFLRDEEPLLKSPGACFAQAQFDFSAQDPSQLSFRRGDIIEVLERPDPHWWRGRSCGRVGFFPRSYVQPVHL”: “not soluble”; “MGSDKIHHHHHHMKNRAGEYRTNLTGELQYRSFLPYPLPPSPPIELDEETIKLLAKANRSIGILEGMSRQIPDIDLFVSMYVRKEALLSSQIEGTQVTLDDILDPNIEENTNQNVADVINYIKASHYGSARLAELPLCNRLLKEIHEILMQDVRGGEKSPGEFRSSQNWIGPAGSTLRDARYIPPHPEDMLEAMSDLEKFINSEDELDPLIKIALIHYQFETIHPFLDGNGRIGRLLIALYLINQNLLSHETLYISYFLKRNRIEYYDRLTEVRSKGNFEQWLKFFLLAAYESAQDAIDTIERILKLHYKNVEVVKNTGKASKTVMKVFNYLESSPIIDIKKTSLALELSFNTVSNAVNKLVELGILKQTENVRRSRVFAYEEYLEILRKDT”: “not soluble”; “MGSDKIHHHHHHMHMRVLIINTSERIGGAAIAANRLMEALKNNGIKTKMLVRDKQTDQISVVELKKSWWKVWQFIWERVVIWQANHFKKHNLFAVDIANTGTNITALPEFTQADVIHLHWINQGMLSLTDIRRIIQSGKPIVWTMHDMWPFTGICHYAGDCDKYATQCHNCPQLYKGSRKDIAYRTFQKKKKLFEGAQITFVACSRWLESLAKKSDLIKGQTITNIPNAINTNLFKPRDKKQAREKCHLPQDKKLLLFGSVKITDKRKGIDYLVSACKQIASSYPDFSKELGVVVFGNQAEQYASLFPFPIYPMNYVSNEKELVDIYNAVDLYVTPSLQDNLPNTIVEAMACGIPCIGFNVGGIPQMIDHLHNGYVAEYQSSKDLANGIHWALTEGEYESLSEEACRKAVSSYSESTIAKKYVEIYNKITGNHA”: “not soluble”.
Next, “MKVFGISGSPRLQGTHFAVNYALNYLKEKGAEVRYFSVSRKKINFCLHCDYCIKKKEGCIHKDDMEEVYENLIWADGVIIGTPVYQGNVTGQLKTLMDRCRAILAKNPKVLRGRVGMAIAVGGDRNGGQEIALRTIHDFFIINEMIPVGGGSFGANLGATFWSKDRGKKGVEEDEEGLRVLRKTLNRFYEVLKEKRGLLEHHHHHH”: “not soluble”; “MRETRMVYPVFPGETNHYGTLFGGTVLAWMDQAAFVAATRHARKKVVTVHADAVDFKRPVPLGAIVELVARLKEVGRTSMRVEVEMWVEPVKEGEEAYLAARGGFVLVAVDERGRPSPVPPLEGGEAHAPHGP”: “soluble”; “MSNHDQLHRYLFANHAVRGELVSVNETYQQVLANHDYPPAVQKLLGEMLVATSLLTATLKFDGDITVQLQGGDGPLTLAVINGNNRQEMRGVARVKGEISDDSTLQEMVGNGYLVITITPAQGERYQGVVALEGETIAACLENYFMQSEQLPTRLFIRTGHVADKAAAGGMLLQVLPAQERNEDEFDHLAQLTATIKAEELFTLPANEVLYRLYHQEEVTLYEPQNVSFRCTCSRQRCADALVTLADDDVTEMLEQDGNIDMHCEYCGNHYLFDAVDIATLKNGNSASSEQIH”: “not soluble”.
On to “MELKYVIPNMEKTFGQLEYAGEGNIEQRRINGRPTILSRSYNLYSTIQRADDIVVILPSEAGEKHFESDEKVKLINPHITAEGYKIGNRGFTNYIMHADDMVKALEHHHHHH”, for which the “soluble on expression in E. coli” value is listed as “not soluble”.
Next, “MSLSSPNLSFYYNECERFESFLKNHHLHLESFHPYLEKAFFEMVLNGGKRFRPKLFLAVLCALVGQKDYSNQQTEYFKIALSIECLHTYSLIHDDLPCMDNAALRRNHPTLHAKYDETTAVLIGDALNTYSFELLSNALLESHIIVELIKILSANGGIKGMILGQALDCYFENTPLNLEQLTFLHEHKTAKLISASLIMGLVASGIKDEELFKWLQAFGLKMGLCFQVLDDIIDVTQDEEESGKTTHLDSAKNSFVNLLGLERANNYAQTLKTEVLNDLDALKPAYPLLQENLNALLNTLFKGEGHHHHHH”: “soluble”.
With “MKTLEAIKKELGEYEGKNIKIMEVCGTHTSSIFKNGIRSLISPRIQLISGPGCPVCVTASSYIDRLVEYSLKDNHCVLTFGDMMKVKGHKLSLTEAKATGGNVKILYSPLSAVKIAIKSPETQFIFAAVGFETTAPIYALMIEEIIKNNIKNLKLMTSIKTIIPAISYICENEKNIDAFLCPGHVSVIIGSSVYTDMALKYRKPFVIGGFEGGHIIAAIYEIIRQISNNEYSMKNMYQSAVSPEGNQKAKSLIDKYFEAADDYWRGIGIIKNSGLRLRTEYRDFDAGSTIFEDADAAPSGCKCADVILGRITPAQCPLFGKACTPLNAVGACMVSSEGACGIWYRNCEV”, the “soluble on expression in E. coli” value was “soluble”.
On to “MGSDKIHHHHHHMSGFLTFDFENQAVRAFEHDGQEWFVAVDVCRCLRLENSRQALTRLSDDEKRSCNLNTLTDSKGIIFNAINDSDGIRAGNPNATIVNEPGLYRLIFTSTKPEAERLKRFVFHEVLPALRHTGCFAPEPVIDWEIAREQLSLVREARLAHGKEAAAALWRELGLPMPKDETSDKERRQAQGLMKYVYDFIDECMVFDQKAEVTGKEVYQRYQQWSATNNAPYIMNSSFGRFLIRAGIVKRHVSTGSRYIGVRLKHHIQITDQSS”, for which the “soluble on expression in E. coli” value was “not soluble”.
Turning to “MKPDSNGVYAYDMKISKKLTMAYKNDNPAKHATPVDYDYKTQTWSKREPNQLMDCFQNYSFNHISDPGDANRMEDVLVVDGLHKRVISINGDMPGAPVVVPYMSEVWIRVSNQILMDSMTIHVHGIDKHGMWYMDGVAFVQQCPIQSTNKFEYRFIADNKGTHWYHGHMQTDRGDGIAGGFIVVDQNDTSVPTLDDRKRIVPSREYFFLLQDWATKVGEEAWMQLEDKTMKWMYGYDDFTKCWEPTRTSDGGNVGGAVPISAILLNDKGWYDHDIIKSQPFNLPLERFQIKPNEDILFRIVNGGVAQELMLYVEGHPMTVVAADGDEVVPMKVDRLIVFPGERYDILIKGLATPTKKSYRIQVETVQKYFFDWKEIPIVYGFGYIEYETDGLPEDKTTPNLMHPECTQNKKCTVLNCPFQEWMAQPNFTCISYDKLENPNPEKIEAEILQATQFNGGFEEHFINMHHDSQMDQFLFQFPWGIPYYHDGDMETISTSCSQTACANNSMSDLDTTCRCFYHLEHKLNNIVQITLYNMGLGGAMGTGYAHPFHLHGHHFYVMKVGWPSYNGSGFIDQMNQDIDCPGRDVSCNGKKWRNKDWLGGALEAMNTKNPTKRDTITLPVGGYITIRFRAVNPGWWFAHCHLELHLMGGTGYAYKVGDQNQIYMPPDNFPHDCGVFKVDKLPELRLPTQKSSNIPYTFIAVCLVLIIDRIFH”, the “soluble on expression in E. coli” value is recorded as “not soluble”.
Regarding “MSDEEEEDVNFKPGTEISSTKANYTVVRLLGEGGFGAVYLVQDNKSKKQSAMKVERKIEKRKHSKLKMEIAILKLVGSGKHFTQIVDRGKKDKEGFFFLVMELVGKSLADLKADRPDKVFSFATGLGVSCQCLEAVEELHKTGFIHRDLKPQNYACGLDEKRHNIYILDFGIARKYLNTKNELKTPRETVGFKGTVRFAPIACHRNTEMGPKDDCESWFYLLLDLIVPSGLPWRKLSDKHEVLKEKEECRKDKRSSLFAGLRQTDYLSKVLDYIDGRAYQDRVDYQFIYKNLAEACKVCNLDIDSPYDWELQKPEKTSKEPTSSKMP”, the “soluble on expression in E. coli” value is “not soluble”.
Next, “MSSPPPARSGFYRQEVTKTAWEVRAVYRDLQPVGSGAYGAVCSAVDGRTGAKVAIKKLYRPFQSELFAKRAYRELRLLKHMRHENVIGLLDVFTPDETLDDFTDFYLVMPFMGTDLGKLMKHEKLGEDRIQFLVYQMLKGLRYIHAAGIIHRDLKPGNLAVNEDCELKILDFGLARQADSEMTGYVVTRWYRAPEVILNWMRYTQTVDIWSVGCIMAEMITGKTLFKGSDHLDQLKEIMKVTGTPPAEFVQRLQSDEAKNYMKGLPELEKKDFASILTNASPLAVNLLEKMLVLDAEQRVTAGEALAHPYFESLHDTEDEPQVQKYDDSFDDVDRTLDEWKRVTYKEVLSFKPPRQLGARVSKETPL”: “soluble”; “SNATGLGELKISDTICAQNAVEALPALSVDEPTVTMTFQVNTSPFAGKEGKFVTSRNILERLEKELVHNVALRVEQTDDPDKFRVSGRGELHLSILIENMRREGFELAVSRPEVIIKEEDGQLMEPFETVTIDVMEEHQGGIMENIGLRKGELKDMAPDGKGRVRMDFIMPSRGLIGFQTEFMTLTSGSGLLYHTFDHYGPHKGGNIGQRVNGVLIANAAGKALTNALFNLQERGRLFIGHGVEVYEGMVIGIHSRDNDLTVNALKGKQLTNVRASGTDDAQVLTPPIVMTLEQALEFIDDDELVEVTPESIRIRKKFLTESDRKRASRSAK”: “soluble”; “MKIIYCITKADNGGAQTHLIQLANHFCVHNDVYVIVGNHGPMIEQLDARVNVIIIEHLVGPIDFKQDILAVKVLAQLFSKIKPDVIHLHSSKAGTVGRIAKFISKSKDTRIVFTAHGWAFTEGVKPAKKFLYLVIEKLMSLITDSIICVSDFDKQLALKYRFNRLKLTTIHNGIADVPAVKQTLKSQSHNNIGEVVGMLPNKQDLQINAPTKHQFVMIARFAYPKLPQNLIAAIEILKLHNSNHAHFTFIGDGPTLNDCQQQVVQAGLENDVTFLGNVINASHLLSQYDTFILISKHEGLPISIIEAMATGLPVIASHVGGISELVADNGICMMNNQPETIAKVLEKYLIDSDYIKMSNQSRKRYLECFTEEKMIKEVEDVYNGKSTQ”: “not soluble”.
As for “MRAVLGGEDDGGVGLRVIDNNEVSHGISVNFDGEITYHEQDGYPDDPSERTRAGNIHVNQARRFAKYWVYRKRGYDTIPPTENPDRIIAAAIALTPLEPETAETHLGDFYQHFQSINGTADSPVEMPEGVPEQGGGTVYQKDIYVGLEDETLGTIAADLLADPKLMELVGKSVGVGGESLVGAEYVPTFKELIAEASDRDSDSLPSLSEGLLLEATSGIHVHWDDPPGEYHTQWGDQPDLGRDPAARIEIFPFEPDSITELQAQVARHLLCQIRDCYLTMGIAPPEQFRILGHGRHEATGLYASYDIYDEYFDPNAEIDTWYVENTPEGAYEHEPANKNVQTKA”, the “soluble on expression in E. coli” value was “not soluble”.
As to “MSNEEIKNKDEQLQQDAVETEAEVVGTDADIDWNQAADEIDEKEAKIAQLEAALLVSEERVKEQQDSVLRARAEVENMRRRSEQEVDKARKFALSRFAEELLPVIDNLERAIQAADGEVEAIKPLLEGVELTHKTFVDTIAKFGLKEINPHGEVFNPEFHQAMSIQESAEHEPNTVMFVMQKGYELNGRVLRPAMVMVSK”, the “soluble on expression in E. coli” value is given as “not soluble”.
